3 substances from article PMC6509287 can be followed below.

Assay [1] has as its target TOPBP1 (UniProt Q92547). The assay is described as follows: GST pull-down from nuclear extract. To be noted: reference: wild-type fragment; sites S196.
For assay [2], the target named is TOPBP1 (UniProt Q92547). Nature of the assay: HA immunoprecipitation, western blot. As to conditions: reference: wild type. On the technique in general: In western blotting, separated proteins are transferred to a membrane and probed.

Consider “MDC1 109-330 (from UniProt Q14676) S196A”, for which the “binding against the reference” value in assay [1] is recorded as “lost”. Regarding MDC1 (from UniProt Q14676) S168A, the “binding against the reference” value in assay [2] (sites S168) is “lost”. On to MDC1 (from UniProt Q14676) S196A, for which the “binding against the reference” value in assay [2] (sites S196) is recorded as “lost”.
